Results from the supplement of paper PMC11136658.

System: peptide library, one residue held at a place counted from the Y acceptor
Experiment: relative phosphorylation of the sub-library (ratio to the mean residue at this position); higher = residue favoured
Procedure, shortened: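 Purified recombinant kinases were incubated for 90 min in 384-well plates with biotinylated Tyr-centred peptide library mixtures, each fixing one residue at one position from −5 to +5, plus 50 μM ATP with γ-32P-ATP. Peptides were captured on streptavidin membranes, rinsed and quantified by phosphorimaging and ImageQuant. Intensities were normalized per position by the sum of the 18 (or 16, Ser/Thr-free library) randomized residues and multiplied by that number. Values give phosphorylation relative to the mean randomized residue.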

Chain of TNNI3K, construct: aa1-727, human (Q59H18 1-727, looked up): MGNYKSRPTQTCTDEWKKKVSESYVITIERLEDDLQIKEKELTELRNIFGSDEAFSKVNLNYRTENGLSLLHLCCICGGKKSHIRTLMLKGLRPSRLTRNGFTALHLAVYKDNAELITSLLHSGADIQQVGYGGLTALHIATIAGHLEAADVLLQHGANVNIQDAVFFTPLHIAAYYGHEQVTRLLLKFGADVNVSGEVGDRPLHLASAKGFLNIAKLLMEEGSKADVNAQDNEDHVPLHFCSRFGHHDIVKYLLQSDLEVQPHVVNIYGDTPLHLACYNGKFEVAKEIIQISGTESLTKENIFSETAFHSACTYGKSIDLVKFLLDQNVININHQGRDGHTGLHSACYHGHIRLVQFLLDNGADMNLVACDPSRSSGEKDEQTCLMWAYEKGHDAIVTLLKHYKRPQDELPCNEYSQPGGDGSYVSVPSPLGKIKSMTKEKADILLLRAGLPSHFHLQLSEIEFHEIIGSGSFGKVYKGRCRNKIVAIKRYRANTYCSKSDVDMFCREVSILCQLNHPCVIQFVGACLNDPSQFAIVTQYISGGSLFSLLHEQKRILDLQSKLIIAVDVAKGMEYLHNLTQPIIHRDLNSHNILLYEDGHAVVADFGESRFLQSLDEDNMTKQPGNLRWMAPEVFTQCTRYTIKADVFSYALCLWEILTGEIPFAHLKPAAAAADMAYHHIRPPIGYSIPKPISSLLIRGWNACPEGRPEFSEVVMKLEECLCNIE
Chain of TXK, construct: aa239-end, human (P42681 239-527, looked up): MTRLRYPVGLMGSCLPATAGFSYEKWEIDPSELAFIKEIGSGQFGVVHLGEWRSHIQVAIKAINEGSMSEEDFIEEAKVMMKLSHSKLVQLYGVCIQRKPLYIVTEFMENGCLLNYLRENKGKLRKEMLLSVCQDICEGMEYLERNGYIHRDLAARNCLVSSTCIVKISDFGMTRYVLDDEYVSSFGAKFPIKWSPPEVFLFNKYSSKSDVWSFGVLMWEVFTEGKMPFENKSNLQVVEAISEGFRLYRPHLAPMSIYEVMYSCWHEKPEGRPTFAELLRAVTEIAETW

TNK2, construct: aa110-476, human (from UniProt Q07912)
relative phosphorylation
Settings	at +1	at +2	at +3	at +4	at +5	at -1	at -2	at -3	at -4	at -5
A fixed	2.37	1	0.658	1.04	1.1	0.664	1.24	1.03	1.2	1.13
D fixed	0.799	0.461	0.257	0.749	1.13	0.346	0.917	0.791	0.737	0.812
E fixed	1.01	0.72	0.202	0.835	1.03	0.323	1	0.671	0.743	0.783
F fixed	0.716	1.39	1.03	0.929	1.22	0.934	0.737	0.901	1.05	0.971
G fixed	1.5	0.489	0.492	1.71	1.08	0.562	1.25	1.18	1.23	1.47
H fixed	0.684	0.724	0.513	1.01	0.897	1.59	1	0.972	1	1.05
I fixed	0.759	1.25	3.15	0.888	0.904	1.64	0.74	0.744	0.767	0.834
K fixed	0.587	0.915	0.316	0.774	0.694	1.3	0.894	1.07	1.2	1.12
L fixed	0.684	0.964	2.32	0.742	1.15	1.73	0.694	0.911	0.779	0.787
M fixed	1.37	1.03	1.07	1.02	0.97	1.26	0.69	0.924	0.89	0.815
N fixed	0.613	0.755	0.359	0.903	0.836	0.7	1.03	1.04	0.958	0.996
P fixed	0.233	1.26	0.881	1.55	1.16	0.809	1.69	1.36	1.3	1.22
Q fixed	1.5	1.03	0.437	0.873	0.955	1.15	1.21	1.03	1.17	0.966
R fixed	0.89	1.32	0.367	0.995	0.543	1.82	1.05	1.32	1.36	1.31
S fixed	1.18	1.02	0.543	1.21	1.01	0.626	1.16	1.12	0.824	0.952
T fixed	1.05	1.25	0.94	1.03	1.14	0.936	0.987	1.02	0.762	0.951
V fixed	1.04	1.32	2.39	0.846	0.949	0.951	0.952	0.825	0.785	0.755
W fixed	1.03	1.11	2.07	0.898	1.22	0.658	0.759	1.1	1.25	1.08
pThr fixed	0.667	1.05	0.311	0.814	0.654	0.486	0.969	0.721	0.716	0.775
pTyr fixed	0.727	2.16	0.495	0.959	1.03	0.669	0.714	0.904	0.888	1

TNNI3K, construct: aa1-727, human (from UniProt Q59H18)
relative phosphorylation
Settings	at +1	at +2	at +3	at +4	at +5	at -1	at -2	at -3	at -4	at -5
A fixed	1.74	0.816	0.787	0.992	0.912	1.78	1.09	0.969	1.16	1.17
D fixed	0.328	0.35	0.376	0.377	0.577	1.18	0.589	0.741	0.664	0.668
E fixed	0.277	0.288	0.455	0.35	0.483	1.23	0.717	0.683	0.757	0.538
F fixed	0.587	0.975	1.03	1.01	1.04	0.637	0.998	1.12	1.05	1.09
G fixed	0.605	0.86	0.909	1.12	0.791	1.1	1.34	1.34	1.5	1.35
H fixed	0.57	1.04	1.22	0.997	1.04	0.943	1.18	1.13	1.04	0.979
I fixed	2.26	0.78	0.929	0.945	0.795	0.572	1.03	0.914	0.894	0.958
K fixed	0.896	1.83	1.68	1.24	1.76	0.641	0.992	0.982	1.22	1.22
L fixed	0.79	0.65	1.02	1.11	1.01	0.477	0.805	0.863	0.949	1.06
M fixed	0.914	0.661	0.751	1.1	0.948	0.553	0.738	0.781	0.853	0.787
N fixed	0.62	0.853	0.837	0.74	0.85	1.44	1.02	0.99	0.765	0.77
P fixed	0.555	0.774	0.847	1.21	1.06	1.13	0.928	1.27	1.11	1.18
Q fixed	0.746	0.978	1.13	0.952	0.861	1.24	1.05	0.815	0.925	0.808
R fixed	1.23	2.79	2.39	1.73	1.98	0.687	1.4	1.07	1.25	1.21
V fixed	2.88	0.736	0.835	0.979	0.83	0.701	0.996	1.05	0.947	0.98
W fixed	0.784	1.39	0.892	1.27	1.08	0.579	1.11	1.37	1.27	1.46
pThr fixed	0.215	0.234	0.259	0.263	0.44	0.253	0.593	0.715	0.515	0.622
pTyr fixed	0.365	0.427	0.38	0.365	0.583	0.479	0.832	1.21	0.898	0.776

TXK, construct: aa239-end, human (from UniProt P42681)
relative phosphorylation
Settings	at +1	at +2	at +3	at +4	at +5	at -1	at -2	at -3	at -4	at -5
A fixed	1.58	1.14	0.87	0.836	0.784	0.51	1.03	0.998	1.03	1.07
D fixed	2.77	1.02	0.409	0.931	0.726	0.678	2.01	1.85	1.81	1.32
E fixed	2.53	1.15	0.345	0.797	0.692	0.83	1.99	2.25	1.53	1.32
F fixed	0.463	1.14	1.52	1.03	1.26	1	0.539	0.887	0.727	0.858
G fixed	1.28	0.725	0.939	1.18	1.14	0.379	1.35	1.13	1.34	1.27
H fixed	0.614	1.08	1.38	1.07	1.1	0.774	0.798	0.997	0.89	1.04
I fixed	0.981	0.782	0.907	0.835	0.76	3.78	0.515	0.553	0.641	0.782
K fixed	0.175	0.848	0.625	0.986	1.05	0.34	0.693	0.63	0.905	1.04
L fixed	0.444	0.723	1.12	0.881	0.901	2.45	0.627	0.534	0.571	0.722
M fixed	0.788	0.788	1.24	0.968	0.88	1.4	0.602	0.598	0.76	0.723
N fixed	0.539	1.3	1.24	1.05	1.1	0.638	1.24	1.25	1.17	1.06
P fixed	0.254	0.933	0.908	1.63	1.23	0.531	1.74	1.16	1.24	1.25
Q fixed	0.98	1.16	0.937	0.94	1.08	0.514	1.19	1.19	1.19	1.16
R fixed	0.207	1.14	1.01	1.13	1.21	0.27	0.605	0.64	0.858	0.944
S fixed	1.22	1.41	1.07	0.968	0.896	0.575	1.06	0.995	0.895	0.898
T fixed	1.39	1.64	0.808	1.09	1	0.948	0.87	0.928	0.908	0.807
V fixed	1.57	1.01	0.9	0.834	0.783	1.45	0.624	0.571	0.728	0.771
W fixed	0.829	1.06	1.64	0.899	1.3	0.461	0.443	0.77	0.607	0.668
pThr fixed	3.94	2.21	0.407	0.62	0.444	1.85	1.4	1.35	1.14	0.994
pTyr fixed	1.25	1.67	0.517	0.595	0.619	1.72	1.2	1.23	0.945	0.998
